Broadly, the Kd is the equilibrium constant for the complex coming apart.

In data set [1] the target is BurrH Variant2 (CAPNS1) (Burkholderia rhizoxinica) (UniProt E5AV36). Briefly: ITC. The following applies: FA and ITC: 25 mM HEPES pH 8, 150 mM NaCl, 0.2 mM TCEP, 298 K, SPR: HBS-EP+ (10 mM HEPES pH 7.4, 150 mM NaCl, 3 mM EDTA, 0.05% P20).
Data set [2] deals with Variant2 ND (Burkholderia rhizoxinica) (UniProt E5AV36). As to the kind of experiment: ITC. The following applies: FA and ITC: 25 mM HEPES pH 8, 150 mM NaCl, 0.2 mM TCEP, 298 K, SPR: HBS-EP+ (10 mM HEPES pH 7.4, 150 mM NaCl, 3 mM EDTA, 0.05% P20).
In data set [3] the target is BurrH Variant3 (RAG1) (Burkholderia rhizoxinica) (UniProt E5AV36). Briefly: ITC. Conditions: FA and ITC: 25 mM HEPES pH 8, 150 mM NaCl, 0.2 mM TCEP, 298 K, SPR: HBS-EP+ (10 mM HEPES pH 7.4, 150 mM NaCl, 3 mM EDTA, 0.05% P20).
In data set [4] the target is Variant3 ND (Burkholderia rhizoxinica) (UniProt E5AV36). Briefly: ITC. Conditions: FA and ITC: 25 mM HEPES pH 8, 150 mM NaCl, 0.2 mM TCEP, 298 K, SPR: HBS-EP+ (10 mM HEPES pH 7.4, 150 mM NaCl, 3 mM EDTA, 0.05% P20).
Data set [5] has as its system AvrBs3 TALE. Briefly: SPR. The following applies: FA and ITC: 25 mM HEPES pH 8, 150 mM NaCl, 0.2 mM TCEP, 298 K, SPR: HBS-EP+ (10 mM HEPES pH 7.4, 150 mM NaCl, 3 mM EDTA, 0.05% P20).
Data set [6] concerns the target BurrH Variant1 (CAPNS1) (Burkholderia rhizoxinica) (UniProt E5AV36). Briefly: ITC. The following applies: FA and ITC: 25 mM HEPES pH 8, 150 mM NaCl, 0.2 mM TCEP, 298 K, SPR: HBS-EP+ (10 mM HEPES pH 7.4, 150 mM NaCl, 3 mM EDTA, 0.05% P20).
Data set [7] has as its target Variant1 ND (Burkholderia rhizoxinica) (UniProt E5AV36). As to the kind of experiment: ITC. Conditions: FA and ITC: 25 mM HEPES pH 8, 150 mM NaCl, 0.2 mM TCEP, 298 K, SPR: HBS-EP+ (10 mM HEPES pH 7.4, 150 mM NaCl, 3 mM EDTA, 0.05% P20).
For data set [8], the target named is BurrH Variant4 (RAG1) (Burkholderia rhizoxinica) (UniProt E5AV36). Briefly: ITC. The following applies: FA and ITC: 25 mM HEPES pH 8, 150 mM NaCl, 0.2 mM TCEP, 298 K, SPR: HBS-EP+ (10 mM HEPES pH 7.4, 150 mM NaCl, 3 mM EDTA, 0.05% P20).
Data set [9] concerns the target Variant4 ND (Burkholderia rhizoxinica) (UniProt E5AV36). Briefly: ITC. Conditions: FA and ITC: 25 mM HEPES pH 8, 150 mM NaCl, 0.2 mM TCEP, 298 K, SPR: HBS-EP+ (10 mM HEPES pH 7.4, 150 mM NaCl, 3 mM EDTA, 0.05% P20).
Data set [10] addresses T1, BurrH (Burkholderia rhizoxinica, UniProt E5AV36 1-771).
T1 sequence: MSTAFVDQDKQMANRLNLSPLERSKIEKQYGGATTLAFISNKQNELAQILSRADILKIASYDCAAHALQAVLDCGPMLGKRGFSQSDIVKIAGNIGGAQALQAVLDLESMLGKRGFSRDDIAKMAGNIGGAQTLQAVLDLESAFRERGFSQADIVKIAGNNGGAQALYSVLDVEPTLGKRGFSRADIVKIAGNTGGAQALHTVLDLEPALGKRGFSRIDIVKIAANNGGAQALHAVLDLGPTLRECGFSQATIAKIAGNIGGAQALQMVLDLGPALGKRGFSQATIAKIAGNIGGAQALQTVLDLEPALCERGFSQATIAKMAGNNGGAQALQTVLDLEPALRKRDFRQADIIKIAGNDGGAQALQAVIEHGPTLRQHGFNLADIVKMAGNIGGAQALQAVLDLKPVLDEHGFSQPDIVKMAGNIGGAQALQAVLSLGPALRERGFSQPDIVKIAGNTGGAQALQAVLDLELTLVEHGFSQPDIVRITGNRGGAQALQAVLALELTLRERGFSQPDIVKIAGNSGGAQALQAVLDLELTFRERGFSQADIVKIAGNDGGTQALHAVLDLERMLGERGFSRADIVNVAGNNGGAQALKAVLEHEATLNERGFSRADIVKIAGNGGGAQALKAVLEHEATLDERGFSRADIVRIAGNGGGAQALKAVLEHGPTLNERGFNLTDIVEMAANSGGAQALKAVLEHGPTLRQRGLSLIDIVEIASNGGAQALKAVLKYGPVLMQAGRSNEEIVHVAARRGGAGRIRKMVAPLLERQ
As to the kind of experiment: SPR. Conditions: FA and ITC: 25 mM HEPES pH 8, 150 mM NaCl, 0.2 mM TCEP, 298 K, SPR: HBS-EP+ (10 mM HEPES pH 7.4, 150 mM NaCl, 3 mM EDTA, 0.05% P20).

The target of data set [11] is T1, BurrH. Briefly: ITC; FA and ITC: 25 mM HEPES pH 8, 150 mM NaCl, 0.2 mM TCEP, 298 K; SPR: HBS-EP+ (10 mM HEPES pH 7.4, 150 mM NaCl, 3 mM EDTA, 0.05% P20), 298 K. Conditions: protein: recombinant. Background: ITC needs no label: the signal is the heat of the interaction.
Data set [12] deals with T1, BurrH. As to the kind of experiment: fluorescence anisotropy; FA and ITC: 25 mM HEPES pH 8, 150 mM NaCl, 0.2 mM TCEP, 298 K; SPR: HBS-EP+ (10 mM HEPES pH 7.4, 150 mM NaCl, 3 mM EDTA, 0.05% P20), 298 K. Conditions: protein: recombinant; label: 5' 6-FAM. In general terms: In fluorescence polarisation assays a small probe gives low polarisation when free and higher when bound to something large.

On to “TTTTGTCCGGGAACCCAGAGCTA (double strand) [V2 target]”, for which the Kd was 149 nM in data set [1] and 215 nM in [2].

“TTCAGTGTTTATGGTTACTTATA (double strand) [V3 target]”: the Kd in [3] was 30 nM; in data set [4] it was 26 nM. In the case of AvrBs3 target, SPR duplex, in data set [5], the Kd is 0.22 nM. Turning to “TTGGCTCTGTGGGCTCGGGTCTA (double strand) [V1 target]”, the Kd in [6] and in data set [7] was 29 nM each time. For the molecule “TTGTATATATTTAAGCACTTATA (double strand) [V4 target]”, the Kd in data set [8] amounted to 12 nM; in data set [9], 14 nM. Regarding BurrH target, SPR duplex, the dissociation constant (Kd) in data set [5] stood at 1000 nM; in data set [10], 0.36 nM.

B1: BurrH DNA target/RNA hybrid (DNA:RNA)
DNA: TTAAGAGAAGCAAATACGTTATA
RNA: UAUAACGUAUUUGCAACUCUUAA
As to B1, the Kd in [11] (blunt) is 56 ± 6.5 nM.

B2: FA duplex 13 (A4 A12 C13) (dsDNA)
DNA 1: TTAAGAGAAGCAAACACGTTATA
DNA 2: TATAACGTGTTTGCTTCTCTTAA
For the molecule B2, in [12], the Kd amounted to 39 ± 10 nM.

B3: FA duplex 3 (G4 G12 A13) (dsDNA)
DNA 1: TTAAGGGAAGCAAGAACGTTATA
DNA 2: TATAACGTTCTTGCTTCCCTTAA
Consider B3, for which the Kd in data set [12] turned out to be 81 ± 12 nM.

B4: FA duplex 15 (G4 G12 C13) (dsDNA)
DNA 1: TTAAGGGAAGCAAGCACGTTATA
DNA 2: TATAACGTGCTTGCTTCCCTTAA
Turning to B4, in [12], the Kd came out at 59 ± 6 nM.

B5: FA duplex 5 (A4 A12 T13) (dsDNA)
DNA 1: TTAAGAGAAGCAAATACGTTATA
DNA 2: TATAACGTATTTGCTTCTCTTAA
With B5, the Kd in data set [12] is 32 ± 7 nM.

B6: FA duplex 14 (C4 C12 C13) (dsDNA)
DNA 1: TTAAGCGAAGCAACCACGTTATA
DNA 2: TATAACGTGGTTGCTTCGCTTAA
As to B6, the Kd in data set [12] amounted to 47 ± 5 nM.

B7: FA duplex 7 (G4 G12 T13) (dsDNA)
DNA 1: TTAAGGGAAGCAAGTACGTTATA
DNA 2: TATAACGTACTTGCTTCCCTTAA
Regarding B7, the Kd in data set [12] was determined as 42 ± 7 nM.

B8: FA duplex 9 (A4 A12 G13) (dsDNA)
DNA 1: TTAAGAGAAGCAAAGACGTTATA
DNA 2: TATAACGTCTTTGCTTCTCTTAA
Turning to B8, the Kd in data set [12] turned out to be 35 ± 6 nM.

B9: BurrH RNA target/DNA hybrid (DNA:RNA)
RNA: UUAAGAGAAGCAAAUACGUUAUA
DNA: TATAACGTATTTGCAACTCTTAA
As for B9, the Kd in data set [11] (blunt) amounted to 1890 ± 438 nM.

B10: FA duplex 12 (T4 T12 G13) (dsDNA)
DNA 1: TTAAGTGAAGCAATGACGTTATA
DNA 2: TATAACGTCATTGCTTCACTTAA
Consider B10, for which the Kd in [12] is 63 ± 5 nM.

B11: FA duplex 11 (G4 G12 G13) (dsDNA)
DNA 1: TTAAGGGAAGCAAGGACGTTATA
DNA 2: TATAACGTCCTTGCTTCCCTTAA
As to B11, the Kd in data set [12] came out at 90 ± 12 nM.

B12: FA duplex 2 (C4 C12 A13) (dsDNA)
DNA 1: TTAAGCGAAGCAACAACGTTATA
DNA 2: TATAACGTTGTTGCTTCGCTTAA
For B12, in data set [12], the Kd is 44 ± 9 nM.

B13: FA duplex 10 (C4 C12 G13) (dsDNA)
DNA 1: TTAAGCGAAGCAACGACGTTATA
DNA 2: TATAACGTCGTTGCTTCGCTTAA
As to B13, the Kd in [12] worked out at 49 ± 10 nM.

B14: FA duplex 1 (A4 A12 A13) (dsDNA)
DNA 1: TTAAGAGAAGCAAAAACGTTATA
DNA 2: TATAACGTTTTTGCTTCTCTTAA
For the molecule B14, in [12], the Kd is 40 ± 3 nM.

B15: FA duplex 4 (T4 T12 A13) (dsDNA)
DNA 1: TTAAGTGAAGCAATAACGTTATA
DNA 2: TATAACGTTATTGCTTCACTTAA
For B15, the Kd in data set [12] was 61 ± 8 nM.

B16: BurrH target A0 (dsDNA)
DNA 1: TAAAGAGAAGCAAATACGTTATA
DNA 2: TATAACGTATTTGCTTCTCTTTA
As for B16, the Kd in data set [11] amounted to 15 ± 2.8 nM.

B17: BurrH target G0 (dsDNA)
DNA 1: TGAAGAGAAGCAAATACGTTATA
DNA 2: TATAACGTATTTGCTTCTCTTCA
Take B17: the Kd in [11] was 24 ± 6.3 nM.

B18: BurrH DNA target duplex (dsDNA)
DNA 1: TTAAGAGAAGCAAATACGTTATA
DNA 2: TATAACGTATTTGCTTCTCTTAA
With B18, the Kd in data set [11] came out at 25 ± 4.3 nM.

B19: BurrH target C0 (dsDNA)
DNA 1: TCAAGAGAAGCAAATACGTTATA
DNA 2: TATAACGTATTTGCTTCTCTTGA
In the case of B19, the Kd in data set [11] was 15 ± 3.2 nM.

B20: FA duplex 6 (C4 C12 T13) (dsDNA)
DNA 1: TTAAGCGAAGCAACTACGTTATA
DNA 2: TATAACGTAGTTGCTTCGCTTAA
For B20, in [12], the Kd turned out to be 43 ± 10 nM.

Values taken from publication PMC4089491, “BuD, a helix–loop–helix DNA-binding domain for genome modification”.
